{
  "source": "paper PMC4559766",
  "about": "(Scientific Reports, 2015)",
  "binders": {"B1": {"name": "RMP16, recombinant TNF α-derived polypeptide (peptide)", "chain": "MWQRPSSWIEGRLLTHTISRIAVSYQTKVNLL", "notes": "P16, TNF α segment of amino acid residues 75-94, human; also called recombinant peptide RMP16"}},
  "key": {"Mouse serum albumin [1]": {"biological_target": "T1, Mouse serum albumin (mouse, UniProt P07724 25-608)", "T1 construct": "serum albumin, mouse; also called MSA; source: bought: Sigma", "T1 sequence (P07724 25-608)": "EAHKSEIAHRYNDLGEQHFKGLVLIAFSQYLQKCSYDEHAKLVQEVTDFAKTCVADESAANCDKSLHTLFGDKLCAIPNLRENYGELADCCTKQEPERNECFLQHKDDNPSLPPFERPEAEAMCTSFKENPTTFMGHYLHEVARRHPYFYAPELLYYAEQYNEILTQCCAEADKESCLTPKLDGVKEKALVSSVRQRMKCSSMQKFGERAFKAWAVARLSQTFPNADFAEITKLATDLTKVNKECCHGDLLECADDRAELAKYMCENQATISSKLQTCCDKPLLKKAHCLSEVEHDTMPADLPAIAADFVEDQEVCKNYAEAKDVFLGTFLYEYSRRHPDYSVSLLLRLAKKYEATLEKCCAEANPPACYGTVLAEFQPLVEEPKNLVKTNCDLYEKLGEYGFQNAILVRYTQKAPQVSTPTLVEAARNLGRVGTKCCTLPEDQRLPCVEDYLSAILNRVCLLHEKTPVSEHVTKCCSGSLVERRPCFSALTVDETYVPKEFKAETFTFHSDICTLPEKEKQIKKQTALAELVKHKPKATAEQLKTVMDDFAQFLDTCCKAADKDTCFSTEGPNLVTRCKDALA", "test": "ITC; VP-ITC calorimeter; peptide serially diluted and injected; KD by Microcal ORIGIN Ver. 5.0; method by refs 48, 49", "settings": "both partners purified"}, "Human serum albumin [2]": {"biological_target": "T2, Human serum albumin (human, UniProt P02768 25-609)", "T2 construct": "serum albumin, human; also called HSA; source: bought: Sigma", "test": "ITC; VP-ITC calorimeter; peptide serially diluted and injected; KD by Microcal ORIGIN Ver. 5.0; method by refs 48, 49", "settings": "both partners purified"}, "[3]": {"biological_target": "T3, Recombinant human TNFRI, disulfide-linked homodimer (human, UniProt P19438 30-455)", "test": "ITC; VP-ITC calorimeter; peptide serially diluted and injected; KD by Microcal ORIGIN Ver. 5.0; method by refs 48, 49", "settings": "both partners purified"}, "Human serum albumin [4]": {"biological_target": "T2, Human serum albumin", "test": "cell-based or functional assay"}, "Mouse serum albumin [5]": {"biological_target": "T1, Mouse serum albumin", "test": "SPR; BIAcore 3000; peptide serially diluted and injected; KD by BIAcore kinetic evaluation Ver. 4.1; method by refs 48, 49", "settings": "both partners purified"}, "Human serum albumin [6]": {"biological_target": "T2, Human serum albumin", "test": "SPR; BIAcore 3000; peptide serially diluted and injected; KD by BIAcore kinetic evaluation Ver. 4.1; method by refs 48, 49", "settings": "both partners purified"}, "[7]": {"biological_target": "T3, Recombinant human TNFRI, …", "test": "SPR; BIAcore 3000; peptide serially diluted and injected; KD by BIAcore kinetic evaluation Ver. 4.1; method by refs 48, 49", "settings": "both partners purified"}, "[8]": {"biological_target": "T4, Human TNFRI of ML-la cells (human, UniProt P19438 30-455)", "T4 construct": "also called p60; source: endogenous, on ML-la cells (human myelomonoblastic leukemia cell line)", "T4 sequence (looked up)": "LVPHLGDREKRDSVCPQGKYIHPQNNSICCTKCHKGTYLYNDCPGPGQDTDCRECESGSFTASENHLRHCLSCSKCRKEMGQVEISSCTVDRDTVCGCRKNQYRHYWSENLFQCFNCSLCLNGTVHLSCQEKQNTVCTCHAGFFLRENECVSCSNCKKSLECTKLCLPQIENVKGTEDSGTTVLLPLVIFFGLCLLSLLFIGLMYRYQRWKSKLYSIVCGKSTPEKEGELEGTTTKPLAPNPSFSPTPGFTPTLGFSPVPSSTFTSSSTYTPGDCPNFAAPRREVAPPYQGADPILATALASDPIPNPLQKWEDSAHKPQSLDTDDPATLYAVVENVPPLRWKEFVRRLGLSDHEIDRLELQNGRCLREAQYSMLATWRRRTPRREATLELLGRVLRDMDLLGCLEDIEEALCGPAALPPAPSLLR", "test": "radioligand binding; competition: ML-la cells (1 × 10^6 cells/well) preincubated with anti-p60 or anti-p80 antibody (25 °C, 30 min) to block TNFRI or TNFRII, then 125I-labeled TNF α with unlabeled TNF α or RMP16 (10^-11 to 10^-5 M) in RPMI 1640 with 10% fetal calf serum, 25 °C, 1 h; cell-bound radioactivity counted", "settings": "one partner purified"}},
  "data": [
    {"binder": "B1", "values": [
      {"measurement": "Kd", "setting": "Mouse serum albumin [1]", "value": 894, "unit": "nM"},
      {"measurement": "Kd", "setting": "Human serum albumin [2]", "value": 822, "unit": "nM"},
      {"measurement": "Kd", "setting": "[3]", "value": 20.4, "unit": "nM"},
      {"measurement": "in vitro Factor Xa enzyme digestion half-life of RMP16 (10 μM) in the presence of HSA (2 μM), against 9.72 h without HSA", "setting": "Human serum albumin [4]", "value": 15.8, "unit": "h"},
      {"measurement": "Kd", "setting": "Mouse serum albumin [5]", "value": 925, "unit": "nM"},
      {"measurement": "Kd", "setting": "Human serum albumin [6]", "value": 875, "unit": "nM"},
      {"measurement": "Kd", "setting": "[7]", "value": 21.3, "unit": "nM"},
      {"measurement": "IC50", "setting": "[8]", "value": 15.1, "unit": "nM"}
    ]}
  ]
}
